Source: publication PMC3956856, “Interaction of Kinase-Interaction-Motif Protein Tyrosine Phosphatases with the Mitogen-Activated Protein Kinase ERK2” (PLoS ONE, 2014)
“Also recorded” adds a separate entry of the source. Where two headings read alike, the source gives them in different places.

What was measured:
HePTP (Homo sapiens) = HePTP (Homo sapiens) (UniProt P35236); conditions: cited from earlier work
PTPSL (Homo sapiens) = PTPSL (Homo sapiens) (UniProt Q15256); conditions: cited from earlier work
[1] = target: DUSP16 MKBD MKBD (Homo sapiens) (UniProt Q9BY84); experiment: ITC; conditions: cited from earlier work
ERK2 [2] = target: T1, ERK2 (Rattus norvegicus, UniProt P63086); experiment: Isothermal titration calorimetry with ERK2; type: binding
T1 construct: gene Mapk1; made in house
Procedure: The PTPSLKIM peptide (residues 331–348), STEPKIM (residues 213–229) and STEPKIMKIS (residues 213–256) were synthesized, HPLC purified and verified by mass spectrometry (MS) (>98% purity; Biosynthesis, Inc.). Expression and purification of ERK2 and PTPSLKIMKIS (residues 332–373) was carried out as previously described, [15]. PTPSL (residues 332–655, human), STEP (residues 213–539, mouse) and PSChimera (PTPSL residues 332–373 with STEP residues 257–539; gene synthesized by DNA 2.0) were expressed and purified using the protocol previously described in detail for STEPCAT (residues 244–539). The DUSP16 MAPK binding domain (residues 5–138, human) was expressed and purified as previously described. All purified proteins were stored at −80 °C until use at which point they were thawed and exchanged into the appropriate buffer using size exclusion chromatography (SEC; Superdex 75 26/60; GE Healthcare). The final protein buffer was dependent on the experiment performed. For ITC experiments, the final SEC purification was performed in ITC buffer (10 mM Tris pH 7.5, 150 mM NaCl, 0.1 mM EDTA, 0.5 mM TCEP); for SAXS experiments, the final SEC purification was performed in SAXS buffer (50 mM HEPES pH 6.8, 150 mM NaCl, 5 mM dithiothreitol). PTPSLKIM, STEPKIM and STEPKIMKIS peptides were solubilized in ITC buffer prior to ITC measurements.
ITC experiments were performed at 25 °C using a VP-ITC microcalorimeter (Microcal Inc.). Titrant (10 μL per injection) was injected into the sample cell over a period of 20 seconds with a 250 second interval between titrations to allow for complete equilibration and baseline recovery. 28 injections were delivered during each experiment and the solution in the sample cell was stirred at 307 rpm to ensure rapid mixing. To determine the thermodynamic parameters (ΔH, ΔS, ΔG) and binding constants (K) of the ERK2:PTPSLKIM, ERK2:PTPSL, ERK2:STEP and ERK2:PSChimera interactions, PTPSLKIM, PTPSL, STEP and PSChimera were titrated into ERK2. To determine the same parameters for the ERK2:STEPKIM, ERK2:PTPSLKIMKIS and ERK2:STEPKIMKIS interaction, ERK2 was titrated into the peptides. Titrants were chosen based on the amount of purified protein/peptide available for the experiment. For all titrations the concentrations were slightly varied to ensure independence of the Kd from the protein/peptide concentrations. Data were analyzed with a one-site binding model assuming a binding stoichiometry of 1∶1 using Origin 7.0 software. A nonlinear least-squares algorithm and the titrant and sample cell concentrations were used to fit the heat flow per injection to an equilibrium binding equation, providing values of the stoichiometry (n), change in enthalpy (ΔH) and binding constant (K). All data were repeated in triplicate.

p38α [3] = conditions: values previously published, ref [14], [15], [17], [18], cited from earlier work
From the text: We used ITC measurements to determine the binding affinity of STEP and PTPSL for unphosphorylated ERK2 ( Table 1; Figure S1). […] This complex has a ∼3-times lower Kd (tighter binding) than the next tightest complex, ERK2:PTPSL, and a nearly 70-fold greater affinity than the weakest complex, p38α:HePTP [15]. Like STEP, PTPSL binds ERK2 more tightly (∼3.5-fold) than p38α. We also tested peptides that include the kinase specificity s ... || We also generated a chimeric protein in which we fused the PTPSLKIMKIS to STEPCAT (PSchimera; Figure 1A ). […] Thus, they only adopt a single conformation when they bind their respective MAPKs. This is different from the MAPK-binding domains (MKBD) of MAPK phosphatases (MKP; dual specificity phosphatases; DUSPs), [26]. In MKPs, the KIM sequence is part of a stable, folded domain and thus adopts a single, ordered conformation in both the unbound and MAPK-bound states, [28]. […] Our ... || (+ 1 further places)

p38α [4] = conditions: NMR; MAPK-binding domain; ref [18]; cited from earlier work
From the text: Although there are a few structural differences between ERK2 and p38α in this region (e.g., the activation loop is six residues longer in ERK2), nearly all residues that that we sh ... || The KIM domains of KIM-PTPs are intrinsically disordered in solution [14], [15]. Thus, they only adopt a single conformation when they bind their respective MAPKs. This is different from the MAPK-binding domains (MKBD) of MAPK phosphatases (MKP; dual specificity phosphatases; DUSPs), [26]. In MKPs, the KIM sequence is part of a stable, folded domain and thus adopts a single, ordered conformation in both the unbound and MAPK-bound states, [28]. […] Our ...

[5] = target: T2, extracellular signal-regulated kinase 2 (ERK2), unphosphorylated (UniProt P63086 1-358); experiment: ITC; DUSP16 MKBD and ERK2, which was the titrant is not stated; 25 °C; ITC buffer; one-site model; triplicate; conditions: both partners purified
T2 construct: ERK2 (extracellular signal-regulated kinase 2), unphosphorylated; also called MAPK; source: final SEC (Superdex 75 26/60)

ERK2 [6] = target: T1, ERK2; experiment: SAXS of resting-state complexes with ERK2; for Dmax shorter than that of the ERK2:HePTP complex: values in Å; for Dmax, P(r) function: values in Å; for Rg smaller than that of the ERK2:HePTP resting-state complex: values in Å
Procedure: To form the ERK2:STEP resting-state complex, purified, unphosphorylated ERK2 was incubated in a 1∶1 molar ratio with purified STEP213-539 at room temperature for 30 minutes and purified using SEC (Superdex 75 26/60 [GE Healthcare]; SAXS buffer). Data for the ERK2:STEP complex were recorded on samples at 0.7, 1.2 and 1.7 mg/ml. All samples were prepared within 48 hours of data acquisition and stored on ice at 4 °C. All samples were filtered ([…], Whatman) immediately prior to data collection. All data was recorded at Beamline X9A at the National Synchrotron Light Source (NSLS) using a Dectris Pilatus 300k (3.4 m distance from the sample for SAXS) and a Photonic Science CCD (0.47 m from the sample for WAXS) detector. 20 μl of sample was continuously flowed through a 1 mm diameter capillary and exposed to an X-ray beam for 30 seconds. Normalization for beam intensity, buffer subtraction and merging of the data from both detectors were carried out using PRIMUS [20]. A Guinier approximation, I(q) = I(0)exp(-q^2Rg ^2/3), where a plot of ln[I(q)] and q^2 is linear for q<1.3/Rg (q is the scattering vector q = 4πsin(θ)/λ; λ, wavelength of X-rays and 2θ is the angle between the incident beam and the scattering X-rays) was performed on at least four independent scattering trials and averaged to determine the radius of gyration (Rg). The linearity of the Guinier region and the intensity at zero scattering angle, I(0), were used to validate that all samples were monodisperse in solution. I(0)/c, where c is concentration, was consistent for all measurements. GNOM [21] was used to determine the pair-distribution function, P(r), for the ERK2:STEP resting-state complex using data collected on the 1.7 mg/ml sample. Twenty-four envelopes were generated using GASBOR [22] and were aligned and averaged using the DAMAVER program suite.

ERK2 [7] = target: T1, ERK2; experiment: SAXS of resting-state complexes with ERK2; conditions: ERK2:STEP; 24 GASBOR envelopes, DAMAVER; for Dmax shorter than that of the ERK2:HePTP complex: values in Å; for Dmax, P(r) function: values in Å; for Rg smaller than that of the ERK2:HePTP resting-state complex: values in Å
[8] = target: T2, extracellular signal-regulated kinase 2 …; experiment: ITC; PTPSLKIM, PTPSL, STEP or PSChimera titrated into ERK2 in the cell; 25 °C; 10 mM Tris pH 7.5, 150 mM NaCl, 0.1 mM EDTA, 0.5 mM TCEP; one-site model; triplicate; conditions: both partners purified

PTPSL (Homo sapiens), sequence (Q15256 22-657): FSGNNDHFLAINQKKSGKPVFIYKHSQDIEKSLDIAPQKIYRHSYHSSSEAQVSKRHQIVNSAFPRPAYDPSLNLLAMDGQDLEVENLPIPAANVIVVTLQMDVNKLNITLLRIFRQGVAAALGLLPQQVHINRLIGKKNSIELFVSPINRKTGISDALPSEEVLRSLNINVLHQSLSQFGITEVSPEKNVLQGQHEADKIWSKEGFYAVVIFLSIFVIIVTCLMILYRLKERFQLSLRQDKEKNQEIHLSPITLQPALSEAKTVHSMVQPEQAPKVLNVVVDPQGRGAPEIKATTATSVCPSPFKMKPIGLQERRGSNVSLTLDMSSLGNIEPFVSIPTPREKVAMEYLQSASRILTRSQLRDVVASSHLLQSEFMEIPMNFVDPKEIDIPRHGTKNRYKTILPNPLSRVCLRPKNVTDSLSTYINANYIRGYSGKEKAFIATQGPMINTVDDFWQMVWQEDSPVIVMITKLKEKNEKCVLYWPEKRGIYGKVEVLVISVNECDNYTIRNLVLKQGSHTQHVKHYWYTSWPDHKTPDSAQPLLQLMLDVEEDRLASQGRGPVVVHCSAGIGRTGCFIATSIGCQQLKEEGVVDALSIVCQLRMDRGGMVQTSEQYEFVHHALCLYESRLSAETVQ
HePTP (Homo sapiens), sequence (P35236 whole entry): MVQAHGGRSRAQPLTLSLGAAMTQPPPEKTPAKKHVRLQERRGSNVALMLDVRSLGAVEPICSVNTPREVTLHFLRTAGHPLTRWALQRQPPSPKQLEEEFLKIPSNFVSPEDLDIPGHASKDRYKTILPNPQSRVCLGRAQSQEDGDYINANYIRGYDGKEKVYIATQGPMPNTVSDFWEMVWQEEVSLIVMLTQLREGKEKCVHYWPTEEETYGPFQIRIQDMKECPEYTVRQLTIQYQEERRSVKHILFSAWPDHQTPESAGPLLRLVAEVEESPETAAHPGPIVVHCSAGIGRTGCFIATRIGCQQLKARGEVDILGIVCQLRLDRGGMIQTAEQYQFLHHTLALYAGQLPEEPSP

Molecule: ERK2 (from UniProt P63086)
- Kd (HePTP (Homo sapiens)): 370 nM

Molecule: p38α (from UniProt Q16539)
- Kd (PTPSL (Homo sapiens)): 380 nM
- Kd [1]: 900 nM

B1: DUSP16 MAPK binding domain (residues 5-138, human) (domain or fragment, UniProt Q9BY84 5-138, looked up)
chain: MIGTQIVTERLVALLESGTEKVLLIDSRPFVEYNTSHILEAININCSKLMKRRLQQDKVLITELIQHSAKHKVDIDCSQKVVVYDQSSQDVASLSSDCFLTVLLGKLEKSFNSVHLLAGGFAEFSRCFPGLCEG
notes: also called DUSP16 MKBD; DUSP16 MKB domain; source: final SEC
- weaker binding to ERK2 than to p38α (difference in Kd) (ERK2 [2]; ITC Kd, ERK2 versus p38α): ~1.4 fold
- affinity for ERK2 compared with p38α (in words) (ERK2 [2]; ITC, ERK2 versus p38α): binds these MAPKs with similar affinities; also recorded: binds both MAPKs with similar affinities
- Kd (p38α [3]; listed as DUSP16MKBD-KIM): 890 ± 230 nM
- Kd (p38α [3]): ~900 nM
- interaction with p38α by NMR (in words) (p38α [4]): interacts at multiple positions with p38α
- Kd [5]: 1300 nM
- dH [5]: -4.8 kcal/mol

B2: STEP (residues 213-539, mouse) (domain or fragment, UniProt P54830 213-539, looked up)
chain: MGLQERRGSNVSLTLDMCTPGCNEEGFGYLVSPREESAHEYLLSASRVLRAEELHEKALDPFLLQAEFFEIPMNFVDPKEYDIPGLVRKNRYKTILPNPHSRVRLTSPDPEDPLSSYINANYIRGYSGEEKVYIATQGPIVSTVADFWRMVWQERTPIIVMITNIEEMNEKCTEYWPEEQVVHDGVEITVQKVIHTEDYRLRLISLRRGTEERSLKHYWFTSWPDQKTPDRAPPLLHLVREVEEAAQQEGPHCSPIIVHCSAGIGRTGCFIATSICCQQLRREGVVDILKTTCQLRQDRGGMIQTCEQYQFVHHAMSLYEKQLSLQS
notes: STEP (PTPN5, striatal enriched protein tyrosine phosphatase), mouse, residues 213-539 (KIM, KIS and catalytic domain); The results loosely call this construct 'full-length STEP'; the construct is residues 213-539; also called STEP_(213-539); PTPN5; source: final SEC
- relative binding to ERK2 (in words) (ERK2 [2]; ERK2, ITC): tightest binding complex of all MAPK:KIM-PTP complexes tested; also recorded: more strongly than does HePTP
- tighter binding to ERK2 than the STEPKIM peptide (ERK2 [2]; ERK2, ITC, versus STEPKIM): 11 times
- lower Kd (tighter binding) than the next tightest complex, ERK2:PTPSL (ERK2 [2]; ERK2:STEP versus ERK2:PTPSL): ~3 times
- tighter binding to ERK2 than to p38α (ERK2 [2]; ITC Kd, ERK2 versus p38α): ~12 times
- tighter binding to ERK2 than to p38α (fold difference in affinity) (ERK2 [2]; ITC Kd, ERK2 versus p38α): 12 fold
- affinity for ERK2 compared with p38α (in words) (ERK2 [2]; ITC, ERK2 versus p38α): higher binding affinity for ERK2 than for p38α; also recorded: bind more strongly to ERK2
- TΔS (ERK2 [2]; unphosphorylated ERK2, ITC, 25 °C, 10 mM Tris pH 7.5, 150 mM NaCl, 0.1 mM EDTA, 0.5 mM TCEP, average and standard deviation, triplicate): -19.7 ± 2.0 kcal/mol
- Dmax, P(r) function (ERK2 [6]; ERK2:STEP resting-state complex, GNOM, 1.7 mg/ml sample): 95 Å
- Rg, P(r) function calculation (ERK2 [6]; ERK2:STEP resting-state complex, GNOM, 1.7 mg/ml sample, Q-range 0.013–0.303 Å^−1): 31.1 Å
- Dmax shorter than that of the ERK2:HePTP complex (ERK2 [6]; ERK2:STEP versus ERK2:HePTP): ~15 Å
- Rg smaller than that of the ERK2:HePTP resting-state complex (ERK2 [6]; ERK2:STEP versus ERK2:HePTP): ~3.0 Å
- Rg and Dmax compared with p38α:STEP complex (in words) (ERK2 [6]; ERK2:STEP versus p38α:STEP resting-state complex): highly similar to those determined for the p38α:STEP resting-state complex
- χ^2, structure modeling (ERK2 [6]; ERK2:STEP, 24 GASBOR envelopes): 2.3±0.2
- shape of the complex with ERK2 (in words) (ERK2 [6]; resting-state complex, SAXS): compact; also recorded: more compact, globular complexes
- Kd (p38α [3]): 577 ± 71 nM
- NSD, structure modeling (ERK2 [7]): 1.31±0.05
- Kd [8]: 48 nM
- dH [8]: -29.5 kcal/mol
